{"source": "the Human Domainome abundance scans (Beltran et al. 2025)", "parents": {"B1": {"name": "Nucleosome-remodeling factor subunit BPTF, residues 2862 to 2918; numbered along this chain, Q12830 (parent)", "chain": "TKKDTKLYCICKTPYDESKFYIGCDRCQNWYHGRCVGILQSEAELIDEYVCPQCQST"}}, "note": "± gives the uncertainty stated by the source."}
{"variants_of": "B1", "experiment": "abundance fitness (aPCA) (normalised: wild type 0, dead -1); higher = more abundant; growth selection in yeast, the domain comes from the species named", "details": "Homo sapiens"}
{"variant": "TKKDTKLYCICKTPYDESKFYIGCDRCQNWYHGRCVGILQSEAELIDEYVCPQCQSE", "note": "[T57E]", "abundance fitness": "-0.022 ± 0.21"}
{"variant": "TKKDTKLYCICKTPYDESKFYIGCDRCQNWYHGRCVGILQSEAELIDEYVCPQCQSS", "note": "[T57S]", "abundance fitness": "0.068 ± 0.11"}
{"variant": "TKKDTKLYCICKTPYDESKFYIGCDRCQNWYHGRCVGILQSEAELIDEYVCPQCQSC", "note": "[T57C]", "abundance fitness": "-0.003 ± 0.24"}
{"variant": "TKKDTKLYCICKTPYDESKFYIGCDRCQNWYHGRCVGILQSEAELIDEYVCPQCQSY", "note": "[T57Y]", "abundance fitness": "-0.33 ± 0.28"}
{"variant": "TKKDTKLYCICKTPYDESKFYIGCDRCQNWYHGRCVGILQSEAELIDEYVCPQCQSQ", "note": "[T57Q]", "abundance fitness": "-0.469 ± 0.43"}
{"variant": "TKKDTKLYCICKTPYDESKFYIGCDRCQNWYHGRCVGILQSEAELIDEYVCPQCQSR", "note": "[T57R]", "abundance fitness": "-0.106 ± 0.17"}
{"variant": "TKKDTKLYCICKTPYDESKFYIGCDRCQNWYHGRCVGILQSEAELIDEYVCPQCQSH", "note": "[T57H]", "abundance fitness": "-0.172 ± 0.32"}
{"variant": "TKKDTKLYCICKTPYDESKFYIGCDRCQNWYHGRCVGILQSEAELIDEYVCPQCQSA", "note": "[T57A]", "abundance fitness": "0.024 ± 0.091"}
{"variant": "TKKDTKLYCICKTPYDESKFYIGCDRCQNWYHGRCVGILQSEAELIDEYVCPQCQSG", "note": "[T57G]", "abundance fitness": "-0.16 ± 0.18"}
{"variant": "TKKDTKLYCICKTPYDESKFYIGCDRCQNWYHGRCVGILQSEAELIDEYVCPQCQSP", "note": "[T57P]", "abundance fitness": "-0.044 ± 0.16"}
{"variant": "TKKDTKLYCICKTPYDESKFYIGCDRCQNWYHGRCVGILQSEAELIDEYVCPYCQST", "note": "[Q53Y]", "abundance fitness": "-0.266 ± 0.13"}
{"variant": "TKKDTKLYCICKTPYDESKFYIGCDRCQNWYHGRCVGILQSEAELIDEYVCPWCQST", "note": "[Q53W]", "abundance fitness": "-0.25 ± 0.14"}
{"variant": "TKKDTKLYCICKTPYDESKFYIGCDRCQNWYHGRCVGILQSEAELIDEYVCPNCQST", "note": "[Q53N]", "abundance fitness": "0.078 ± 0.11"}
{"variant": "TKKDTKLYCICKTPYDESKFYIGCDRCQNWYHGRCVGILQSEAELIDEYVCPMCQST", "note": "[Q53M]", "abundance fitness": "-0.139 ± 0.11"}
{"variant": "TKKDTKLYCICKTPYDESKFYIGCDRCQNWYHGRCVGILQSEAELIDEYVCPTCQST", "note": "[Q53T]", "abundance fitness": "0.054 ± 0.091"}
{"variant": "TKKDTKLYCICKTPYDESKFYIGCDRCQNWYHGRCVGILQSEAELIDEYVCPRCQST", "note": "[Q53R]", "abundance fitness": "-0.078 ± 0.08"}
{"variant": "TKKDTKLYCICKTPYDESKFYIGCDRCQNWYHGRCVGILQSEAELIDEYVCPSCQST", "note": "[Q53S]", "abundance fitness": "-0.092 ± 0.089"}
{"variant": "TKKDTKLYCICKTPYDESKFYIGCDRCQNWYHGRCVGILQSEAELIDEYVCPPCQST", "note": "[Q53P]", "abundance fitness": "-0.054 ± 0.093"}
{"variant": "TKKDTKLYCICKTPYDESKFYIGCDRCQNWYHGRCVGILQSEAELIDEYVCPQCGST", "note": "[Q55G]", "abundance fitness": "-0.187 ± 0.075"}
{"variant": "TKKDTKLYCICKTPYDESKFYIGCDRCQNWYHGRCVGILQSEAELIDEYVCPQCPST", "note": "[Q55P]", "abundance fitness": "-0.101 ± 0.094"}
{"variant": "TKKDTKLYCICKTPYDESKFYIGCDRCQNWYHGRCVGILQSEAELIDEYVCPQCAST", "note": "[Q55A]", "abundance fitness": "-0.025 ± 0.084"}
{"variant": "TKKDTKLYCICKTPYDESKFYIGCDRCQNWYHGRCVGILQSEAELIDEYVCPQCDST", "note": "[Q55D]", "abundance fitness": "0.174 ± 0.1"}
{"variant": "TKKDTKLYCICKTPYDESKFYIGCDRCQNWYHGRCVGILQSEAELIDEYVCPQCCST", "note": "[Q55C]", "abundance fitness": "-0.072 ± 0.09"}
{"variant": "TKKDTKLYCICKTPYDESKFYIGCDRCQNWYHGRCVGILQSEAELIDEYVCPQCLST", "note": "[Q55L]", "abundance fitness": "-0.157 ± 0.078"}
{"variant": "TKKDTKLYCICKTPYDESKFYIGCDRCQNWYHGRCVGILQSEAELIDEYVCPQCTST", "note": "[Q55T]", "abundance fitness": "-0.196 ± 0.076"}
{"variant": "TKKDTKLYCICKTPYDESKFYIGCDRCQNWYHGRCVGILQSEAELIDEYVCPQCNST", "note": "[Q55N]", "abundance fitness": "-0.09 ± 0.12"}
{"variant": "TKKDTKLYCICKTPYDESKFYIGCDRCQNWYHGRCVGILQSEAELIDEYVCPQCEST", "note": "[Q55E]", "abundance fitness": "0.01 ± 0.094"}
{"variant": "TKKDTKLYCICKTPYDESKFYIGCDRCQNWYHGRCVGILQSEAELIDEYVCPQCVST", "note": "[Q55V]", "abundance fitness": "-0.18 ± 0.08"}
{"variant": "TKKDTKLYCICKTPYDESKFYIGCDRCQNWYHGRCVGILQSEAELIDEYVCPQCYST", "note": "[Q55Y]", "abundance fitness": "-0.474 ± 0.13"}
{"variant": "TKKDTKLYCICKTPYDESKFYIGCDRCQNWYHGRCVGILQSEAELIDEYVCPQCHST", "note": "[Q55H]", "abundance fitness": "-0.167 ± 0.12"}
{"variant": "TKKDTKLYCICKTPYDESKFYIGCDRCQNWYHGRCVGILQSEAELIDEYVCPQCWST", "note": "[Q55W]", "abundance fitness": "-0.245 ± 0.099"}
{"variant": "TKKDTKLYCICKTPYDESKFYIGCDRCQNWYHGRCVGILQSEAELIDEYVCPQCIST", "note": "[Q55I]", "abundance fitness": "-0.141 ± 0.12"}
{"variant": "TKKDTKLYCICKTPYDESKFYIGCDRCQNWYHGRCVGILQSEAELIDEYVCPQCKST", "note": "[Q55K]", "abundance fitness": "0.021 ± 0.11"}
{"variant": "TKKDTKLYCICKTPYDESKFYIGCDRCQNWYHGRCVGILQSEAELIDEYVCPQCMST", "note": "[Q55M]", "abundance fitness": "-0.188 ± 0.095"}
{"variant": "TKKDTKLYCICKTPYDESKFYIGCDRCQNWYHGRCVGILQSEAELIDEYVCPQCFST", "note": "[Q55F]", "abundance fitness": "-0.375 ± 0.13"}
{"variant": "TKKDTKLYCICKTPYDESKFYIGCDRCQNWYHGRCVGILQSEAELIDEYVCPQCRST", "note": "[Q55R]", "abundance fitness": "-0.142 ± 0.068"}
{"variant": "TKKDTKLYCICKTPYDESKFYIGCDRCQNWYHGRCVGILQSEAELIDEYVCPQCQYT", "note": "[S56Y]", "abundance fitness": "-0.191 ± 0.45"}
{"variant": "TKKDTKLYCICKTPYDESKFYIGCDRCQNWYHGRCVGILQSEAELIDEYVCPQCQRT", "note": "[S56R]", "abundance fitness": "0.074 ± 0.35"}
{"variant": "TKKDTKLYCICKTPYDESKFYIGCDRCQNWYHGRCVGILQSEAELIDEYVCPQCQFT", "note": "[S56F]", "abundance fitness": "-0.063 ± 0.22"}
{"variant": "TKKDTKLYCICKTPYDESKFYIGCDRCQNWYHGRCVGILQSEAELIDEYVCPQCQWT", "note": "[S56W]", "abundance fitness": "-0.554 ± 0.47"}
{"variant": "TKKDTKLYCICKTPYDESKFYIGCDRCQNWYHGRCVGILQSEAELIDEYVCPQCQKT", "note": "[S56K]", "abundance fitness": "-0.03 ± 0.39"}
{"variant": "TKKDTKLYCICKTPYDESKFYIGCDRCQNWYHGRCVGILQSEAELIDEYVCPQCQGT", "note": "[S56G]", "abundance fitness": "-0.195 ± 0.27"}
{"variant": "TKKDTKLYCICKTPYDESKFYIGCDRCQNWYHGRCVGILQSEAELIDEYVCPQCQNT", "note": "[S56N]", "abundance fitness": "0.269 ± 0.4"}
